Measured values published in publication PMC4974930.
Like-named read-outs stand apart in the source and are kept apart here. Each block holds one substance with its values, some of them ahead of it.

Legend:
Test in all cases: cross-linking; 0.3 mg/ml purified F1 mutant in buffer A (20 mM HEPES pH 7.4, 100 mM KCl, 5 mM MgCl2, 5% glycerol) with trans-ABDM (azobenzene-dimaleimide), at least 2 h at room temperature, quenched with 1 mM DTT; 8% SDS-PAGE, intensity of the α/β dimer band relative to the monomer bands
[1] = target: E. coli F1 ATPase β subunit, cysteine-less, 6xHis-tagged, Q324C (E. coli)
[2] = target: E. coli F1 ATPase β subunit, cysteine-less, 6xHis-tagged, S327C (E. coli)
[3] = target: E. coli F1 ATPase β subunit, cysteine-less, 6xHis-tagged, G412C (E. coli)
[4] = target: E. coli F1 ATPase β subunit, cysteine-less, 6xHis-tagged, V409C (E. coli)
[5] = target: E. coli F1 ATPase β subunit, cysteine-less, 6xHis-tagged, V409C (E. coli); remark: listed apart in the source

- crosslinking ratio [1]: 0.2
Substance: E. coli F1 ATPase α subunit, cysteine-less, S338C (from UniProt P0ABB0 1-513) (natural protein)

- crosslinking ratio [2]: 0.2
Substance: E. coli F1 ATPase α subunit, cysteine-less, N369C (from UniProt P0ABB0 1-513) (natural protein)

- crosslinking ratio [3]: 0.3
Substance: E. coli F1 ATPase α subunit, cysteine-less, G379C (from UniProt P0ABB0 1-513) (natural protein)

- crosslinking ratio [4]: 0.4
- crosslinking ratio [5]: 0.3
Substance: E. coli F1 ATPase α subunit, cysteine-less, A380C (from UniProt P0ABB0 1-513) (natural protein)
